Here are results for three compounds from publication PMC7198388, “Radiohybrid Ligands: A Novel Tracer Concept Exemplified by ^18F- or ^68Ga-Labeled rhPSMA Inhibitors” (Journal of Nuclear Medicine, 2020).

Like-named read-outs stand apart in the source and are kept apart here.

The test system of series [1] is LNCaP tumor-bearing male CB-17 SCID mice. The settings on record: 1 h p.i., mean ± SD, n = 4, cited from earlier work. The method, then: page 21: 9. Supplemental Data 2 Supplemental Table 2. Biodistribution of 68Ga-19F-rhPSMA-7 to 10, 18F-rhPSMA-7 and the reference ligands 18F-DCFPyL and 18F-PSMA-1007 at 1 h p.i. in LNCaP tumor-bearing SCID mice (n=3 for 68Ga-19F-rhPSMA-7 to 9, n=3 for 18F-rhPSMA-7, n=4 for 68Ga-19F-rhPSMA-10, 18F-DCFPyL and 18F-PSMA- 1007). Data for reference ligands were taken from a previously published study by our group (3). Values are expressed as a percentage of injected dose per gram (%ID/g), mean ± standard deviation. 18 18 68Ga-natF- 68Ga-natF- 68Ga-natF- 68Ga-natF- 18F-rhPSMA-7 Organ F-DCFPyL F-PSMA- ...

For series [2], the system named is LNCaP cells. The settings on record: 1 h, 37°C, % of (125I-I-BA)KuE, 18F reference ligands, mean ± SD, n = 3; cited from earlier work. From the text: page 20: 8. Supplemental Data 1 Supplemental Table 1.
Series [3] has as its target T1, human serum albumin (Homo sapiens, UniProt P02768).
T1 construct: purchased Daicel H13H-2433
The settings on record: affinity HPLC, Chiralpak HSA column; 19F reference ligands; cited from earlier work. The method, then: Binding to HSA was assessed by means of a recently described HPLC method (Fig. 3D) ([34]). […] Supplemental Data 1 Supplemental Table 1.

Series [4] deals with LNCaP cells. In words: Internalization into LNCaP cells, normalized to (125I-I-BA)KuE. Conditions: LNCaP cells 1.25 x 10^5/well, 1 h, 37°C, ligand 0.5 nM/well; % of specific internalization of (125I-I-BA)KuE; 68Ga-19F or 18F free-chelator form; mean ± SD, n = 3. Type of series: cell-based, human. As for the experimental part: Internalization studies were carried out according to a previously published procedure (1). Briefly, LNCaP cells were harvested 24 ± 2 hours before the experiment and seeded in poly -L-lysine coated 24-well plates […]
After removal of the culture medium, the cells were washed once with 500 µL DMEM -F12 (5% BSA) and left to equilibrate for at least 15 min at 37 °C in 200 µL DMEM-F12 (5% BSA). Each well was treated with either 25 µL of either DMEM-F12 (5% BSA, control) or 25 µL of a 100 µM PMPA (2-(Phosphonomethyl)-pentandioic acid, Tocris Bioscience, Bristol, UK) solution in PBS, for blockade. Next, 25 µL of the radioactive-labelled PSMA inhibitor (5.0 nM in PBS) was added and the cells were incubat ed at 37 °C for 60 min. The experiment was terminated by placing the 24 -well plate on ice for 3 min and consecutive removal of the medium. Each well was carefully washed with 250 µL of ice-cold HBSS. Both fractions from the first steps, representing the amount of free radioligand, were combined. Removal of surface bound activity was accomplished by incubation of the cells with 250 µL of ice-cold PMPA (10 µM in PBS) solution for 5 min […]
and rinsed again with another 250 µL of ice-cold PBS. The internalized activity was determined by incubation of the cells in 250 µL 1 M aqueous NaOH for at least 10 min. The obtained fractions were combined with those of the subsequent wash step with 250 µL 1 M aqueous NaOH. Each experiment (control and blockade) was performed in triplicate. Free, surface bound and internalized activity was quantified in a γ-counter. All internalization studies were accompanied by external reference studies, using […]
Data were corrected for non-specific

Series [5] can be described thus: Biodistribution in LNCaP tumor-bearing CB-17 SCID mice. Conditions: male, mouse, in vivo, iv, 0.2 nmol, total radioactivity, Biodistribution. An excerpt:
Mice were used for experiments when tumors had grown to a diameter of 5–10 mm (3–6 wk after inoculation).
Selected organs were removed, weighed, and measured in a γ-counter.

Series [6] can be described thus: Lipophilicity, n-octanol/PBS partition coefficient. The class given is physicochemical. The settings on record: pH 7.4. The method, then: Approximately 1 MBq of the labeled tracer was dissolved in 1 mL of a 1:1 mixture (v/v) of PBS (pH 7.4) and n-octanol in a reaction vial (n = 6). After vigorous mixing of the suspension for 3 min at r.t., the vial was centrifuged at 15,000g for 3 min (Biofuge 15, Heraus Sepatech), and 100 μL aliquots of both layers were measured in a γ-counter.

Series [7] has as its target T2, PSMA (Homo sapiens, UniProt Q04609).
T2 construct: PSMA-positive LNCaP cells (300265; Cell Lines Service) were cultivated; host or cells: LNCaP human prostate carcinoma cells
In words: Competitive binding (IC50) on LNCaP cells with (125I-I-BA)KuE as radioligand. Conditions: LNCaP cells 1.5 x 10^5/well, 1 h, 4°C, (125I-I-BA)KuE 0.2 nM/well, HBSS 1% BSA; natGa-19F or 19F free-chelator form; mean ± SD, n = 3. The method, then: Data were corrected for nonspecific binding and normalized to the specific-internalization observed for the radioiodinated reference compound (n = 3). […]
with water (10 mL). The purified product was eluted with 50% aqueous ethanol (2 mL), phosphate buffered saline (PBS, 1 mL) and again water (1 mL). After removing ethanol in vacuo, purity of the radiolabelled compounds was determined by radio-HPLC and radio-TLC (ITLC-SG chromatography paper, mobile phase: 0.1 M trisodium citrate and Silica gel 60 RP-18 F254s, mobile phase: 3:2 mixture (v/v) of MeCN in H2O supplemented with 10% of 2 M NaOAc solution and 1% of TFA).
6. Human Serum Albumin (HSA) Binding
HSA binding of the PSMA-addressing ligands was determined according to a previously published procedure via HPLC (7). A Chiralpak HSA column (50 x 3 mm, 5 μm, H13H-2433, Daicel, Tokyo, Japan) […]
literature, in the range of 13 to 99% (7,8). All substances, including the examined PSMA ligands, were […]
final concentration of 0.5 mg/mL.
(Northampton, United States).
Affinity determinations (IC50)
The PSMA affinity (IC50) determinations and synthesis of the radioiodinated reference ligand (((S)-1- […]
described previously (1). Briefly, the respective ligand was diluted (serial dilution 10-4 to 10-10) in Hank’s balanced salt solution (HBSS, Biochrom). […]
(1% BSA). […] Quantification of all collected fractions was accomplished in a γ - counter. […]

T2 sequence (Q04609 whole entry): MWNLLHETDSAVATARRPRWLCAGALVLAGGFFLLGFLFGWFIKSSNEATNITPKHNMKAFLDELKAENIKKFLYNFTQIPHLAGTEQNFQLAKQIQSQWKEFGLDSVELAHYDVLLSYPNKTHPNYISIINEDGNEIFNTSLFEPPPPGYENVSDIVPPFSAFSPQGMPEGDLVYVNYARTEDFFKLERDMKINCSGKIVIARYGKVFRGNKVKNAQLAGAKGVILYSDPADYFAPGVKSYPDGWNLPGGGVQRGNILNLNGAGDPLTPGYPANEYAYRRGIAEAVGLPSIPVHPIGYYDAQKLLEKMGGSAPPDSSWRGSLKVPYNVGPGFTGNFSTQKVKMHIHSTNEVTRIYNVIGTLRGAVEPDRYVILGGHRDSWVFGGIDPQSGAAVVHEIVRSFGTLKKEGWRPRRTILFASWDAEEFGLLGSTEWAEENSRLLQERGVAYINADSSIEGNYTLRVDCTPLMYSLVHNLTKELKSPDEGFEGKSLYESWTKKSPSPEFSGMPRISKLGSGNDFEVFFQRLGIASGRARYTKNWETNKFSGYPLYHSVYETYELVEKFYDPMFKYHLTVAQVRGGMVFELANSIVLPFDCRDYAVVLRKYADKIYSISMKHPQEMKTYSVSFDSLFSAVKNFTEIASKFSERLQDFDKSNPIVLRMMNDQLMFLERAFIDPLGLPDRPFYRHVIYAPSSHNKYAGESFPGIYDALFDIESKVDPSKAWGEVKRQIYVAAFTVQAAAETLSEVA
T1 sequence (P02768 25-609): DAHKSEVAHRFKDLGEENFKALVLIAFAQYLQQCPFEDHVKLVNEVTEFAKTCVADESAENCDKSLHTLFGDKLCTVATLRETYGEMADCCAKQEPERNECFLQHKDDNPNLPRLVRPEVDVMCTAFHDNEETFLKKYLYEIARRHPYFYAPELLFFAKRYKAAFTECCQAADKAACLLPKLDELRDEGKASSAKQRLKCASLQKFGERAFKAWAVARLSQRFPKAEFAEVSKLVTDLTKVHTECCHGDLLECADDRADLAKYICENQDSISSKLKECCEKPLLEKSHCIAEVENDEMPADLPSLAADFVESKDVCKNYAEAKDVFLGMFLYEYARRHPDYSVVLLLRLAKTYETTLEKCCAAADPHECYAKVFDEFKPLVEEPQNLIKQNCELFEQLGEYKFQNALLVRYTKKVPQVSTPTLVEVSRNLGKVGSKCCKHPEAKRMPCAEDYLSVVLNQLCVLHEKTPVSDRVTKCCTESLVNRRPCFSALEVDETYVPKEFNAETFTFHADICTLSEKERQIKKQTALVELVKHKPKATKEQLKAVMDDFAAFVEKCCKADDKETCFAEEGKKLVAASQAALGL

On to `O=C(O)CCC(NC(=O)NC(CCCCNC(=O)c1ccc([18F])nc1)C(=O)O)C(=O)O` (centres unmarked) [19/18F-DCFPyL, 2-(3-{1-Carboxy-5-[(6-[^18F]fluoro-pyridine-3-carbonyl)-amino]-pentyl}-ureido)-pen tanedioic acid], for which, in series [1], the “Biodistribution, Adrenals” value is on record as 5.0 ± 4.0 %ID/g; the “Biodistribution, Blood” value is 0.34 ± 0.30 %ID/g; the “Biodistribution, Bone” value was 0.12 ± 0.02 %ID/g; the “Biodistribution, Heart” value is listed as 0.25 ± 0.09 %ID/g. In series [1], the “Biodistribution, Intestine” value is recorded as 0.14 ± 0.02 %ID/g; the “Biodistribution, Kidneys” value is recorded as 152.4 ± 15.3 %ID/g; the “Biodistribution, Liver” value is recorded as 1.7 ± 0.2 %ID/g; the “Biodistribution, Lung” value is reported as 0.46 ± 0.05 %ID/g. Also, in series [1], the “Biodistribution, Muscle” value is recorded as 0.11 ± 0.02 %ID/g; the “Biodistribution, Pancreas” value is reported as 0.20 ± 0.10 %ID/g; the “Biodistribution, Spleen” value is given as 9.6 ± 4.4 %ID/g; the “Biodistribution, Stomach” value was 0.20 ± 0.03 %ID/g. Further, the “Biodistribution, Tumor” value in series [1] (LNCaP tumor) is given as 7.3 ± 1.5 %ID/g. In series [2], the Internalization is on record as 118 ± 4 % of reference. Also, the HSA-binding in series [3] is recorded as 14%.
In the case of `CC(C)(C)[Si](F)(c1ccc(C(=O)NC[C@@H](NC(=O)CCC(C(=O)O)N2CCN(CC(=O)O)CCN(CC(=O)O)CCN(CC(=O)O)CC2)C(=O)N[C@H](CCCCNC(=O)CCC(=O)NCCC[C@@H](NC(=O)CC[C@H](NC(=O)N[C@@H](CCC(=O)O)C(=O)O)C(=O)O)C(=O)O)C(=O)O)cc1)C(C)(C)C` (some centres unmarked) [68/natGa-19/18F-rhPSMA-7, metal not drawn], the Internalization in series [4] is listed as 126 ± 13 % of reference. The tissue uptake at 1 h in series [5] (Adrenals) came to 6.7 ± 2.2 %ID/g; in series [5] (Blood) it was 1.9 ± 0.1 %ID/g; in series [5] (Bone), 0.52 ± 0.11 %ID/g; in series [5] (Heart), 1.2 ± 0.3 %ID/g; in series [5] (Intestine), 0.43 ± 0.07 %ID/g; in series [5] (Kidneys) it was 34.1 ± 6.6 %ID/g. Further, the tissue uptake at 1 h in series [5] (Liver) is 0.77 ± 0.1 %ID/g; in series [5] (Lung), 1.7 ± 0.2 %ID/g; in series [5] (Muscle) it was 0.42 ± 0.22 %ID/g; in series [5] (Pancreas), 0.71 ± 0.11 %ID/g; in series [5] (Spleen), 13.8 ± 5 %ID/g; in series [5] (Stomach), 0.51 ± 0.07 %ID/g. Besides, in series [5] (Tumor), the tissue uptake at 1 h was 8.6 ± 0.2 %ID/g. The “Lipophilicity log PO/PBS” value in series [6] is on record as “- 3.2 ± 0.05”.
For the compound `CC(C)(C)[Si](F)(c1ccc(C(=O)NC[C@@H](NC(=O)CN2CCN(CC(=O)O)CCN(CC(=O)O)CCN(CC(=O)O)CC2)C(=O)N[C@H](CCCCNC(=O)CCC(=O)NCCC[C@@H](NC(=O)CC[C@H](NC(=O)N[C@@H](CCC(=O)O)C(=O)O)C(=O)O)C(=O)O)C(=O)O)cc1)C(C)(C)C` [68/natGa-19F-rhPSMA-10, metal not drawn], the tissue uptake at 1 h in series [5] (Adrenals) came to 2.2 ± 0.3 %ID/g; in series [5] (Blood), 1.5 ± 0.3 %ID/g; in series [5] (Bone) it was 0.35 ± 0.13 %ID/g; in series [5] (Heart), 0.75 ± 0.13 %ID/g; in series [5] (Intestine) it was 0.47 ± 0.21 %ID/g; in series [5] (Kidneys), 77.5 ± 13.6 %ID/g. Besides, the tissue uptake at 1 h in series [5] (Liver) turned out to be 0.7 ± 0.2 %ID/g; in series [5] (Lung) it was 1.3 ± 0.2 %ID/g; in series [5] (Muscle) it was 0.33 ± 0.1 %ID/g; in series [5] (Pancreas), 0.51 ± 0.03 %ID/g; in series [5] (Spleen), 9.4 ± 1.6 %ID/g; in series [5] (Stomach), 0.42 ± 0.12 %ID/g. In addition, the tissue uptake at 1 h in series [5] (Tumor) stood at 11.7 ± 1.9 %ID/g. This compound displayed an IC50 in series [7] of 3.8 ± 0.3 nM.
